Assay results taken from patent US20230250148A1 (published 2023).
Values belong to the binder of their own block, whether it stands above or below them.

Legend:
biotinylated canine FcRn [1] = target: T1, biotinylated canine FcRn (canine, UniProt A0A8I3PFR8 25-347, biotinylated, site not stated); assay: ELISA pH 5.5, fusion protein coated, biotinylated canine FcRn titrated
Procedure: (§1) Insulin-Fc fusion proteins comprising Fc fragments of canine origin were diluted to 10 µg/ml in sodium bicarbonate pH 9.6 buffer and coated in duplicate on Maxisorb ELISA plate strips for 1-2 hours at RT. The strips were then washed 4 times with PBST (PBS/0.1% Tween-20) buffer and blocked with Superblock blocking reagent (ThermoFisher). Strips for FcRn binding were then washed again twice with pH 5.5 MES/NaCl/Tween (50 mM MES/150mM NaCl/0.1% Tween-20) buffer before addition of the FcRn reagent (biotinylated canine FcRn; Immunitrack). Serial dilutions (1:3X dilutions) of biotinylated FcRn reagent were prepared in pH 5.5 MES/NaCl/Tween/10%Superblock buffer at concentrations from 1000 ng/ml to 0.45 ng/mL and loaded at 100 µL/well using a multichannel pipettor onto the strips coated with the insulin-Fc fusion protein compounds. The assay plate was then incubated for 1 hour at room temperature. FcRn binding strips were washed 4 times with pH 5.5 MES/NaCl/Tween buffer and then loaded with 100 µl/well streptavidin-HRP diluted 1:10000 in pH 5.5 MES/NaCl /10%Superblock buffer. After incubating for 45 minutes, strips were washed again 4 times with pH 5.5 MES/NaCl/Tween buffer. […] The plate was read in an ELISA plate reader at a wavelength of 450 nm. […] EC50 values for each binding curve were calculated to compare between different compounds.

[2] = target: T2, biotinylated recombinant human Fc(gamma)RI (human, UniProt P12314 16-288, biotinylated, site not stated); assay: ELISA, fusion protein coated, biotinylated rhFc(gamma)RI at 3000 ng/mL
T2 construct: Bought reagent; construct not described; also called rhFc(gamma)RI; Fc(gamma) receptor I
T2 sequence (P12314 16-288 limits assumed): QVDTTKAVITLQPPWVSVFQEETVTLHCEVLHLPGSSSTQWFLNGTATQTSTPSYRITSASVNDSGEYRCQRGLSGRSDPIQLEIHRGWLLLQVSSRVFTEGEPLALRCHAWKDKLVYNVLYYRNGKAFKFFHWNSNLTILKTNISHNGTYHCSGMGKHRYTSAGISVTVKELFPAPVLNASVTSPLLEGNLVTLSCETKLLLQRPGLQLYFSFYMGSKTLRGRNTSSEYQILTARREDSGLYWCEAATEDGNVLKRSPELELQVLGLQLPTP

[3] = target: T3, human insulin receptor (IR) on human IM-9 cells (human, UniProt P06213 28-1382); assay: competition with biotinylated RHI on IM-9 cells, flow cytometry, 4 C; material purified via Protein A
T3 construct: whole, on cells; also called human IR
T3 sequence (P06213 28-1382): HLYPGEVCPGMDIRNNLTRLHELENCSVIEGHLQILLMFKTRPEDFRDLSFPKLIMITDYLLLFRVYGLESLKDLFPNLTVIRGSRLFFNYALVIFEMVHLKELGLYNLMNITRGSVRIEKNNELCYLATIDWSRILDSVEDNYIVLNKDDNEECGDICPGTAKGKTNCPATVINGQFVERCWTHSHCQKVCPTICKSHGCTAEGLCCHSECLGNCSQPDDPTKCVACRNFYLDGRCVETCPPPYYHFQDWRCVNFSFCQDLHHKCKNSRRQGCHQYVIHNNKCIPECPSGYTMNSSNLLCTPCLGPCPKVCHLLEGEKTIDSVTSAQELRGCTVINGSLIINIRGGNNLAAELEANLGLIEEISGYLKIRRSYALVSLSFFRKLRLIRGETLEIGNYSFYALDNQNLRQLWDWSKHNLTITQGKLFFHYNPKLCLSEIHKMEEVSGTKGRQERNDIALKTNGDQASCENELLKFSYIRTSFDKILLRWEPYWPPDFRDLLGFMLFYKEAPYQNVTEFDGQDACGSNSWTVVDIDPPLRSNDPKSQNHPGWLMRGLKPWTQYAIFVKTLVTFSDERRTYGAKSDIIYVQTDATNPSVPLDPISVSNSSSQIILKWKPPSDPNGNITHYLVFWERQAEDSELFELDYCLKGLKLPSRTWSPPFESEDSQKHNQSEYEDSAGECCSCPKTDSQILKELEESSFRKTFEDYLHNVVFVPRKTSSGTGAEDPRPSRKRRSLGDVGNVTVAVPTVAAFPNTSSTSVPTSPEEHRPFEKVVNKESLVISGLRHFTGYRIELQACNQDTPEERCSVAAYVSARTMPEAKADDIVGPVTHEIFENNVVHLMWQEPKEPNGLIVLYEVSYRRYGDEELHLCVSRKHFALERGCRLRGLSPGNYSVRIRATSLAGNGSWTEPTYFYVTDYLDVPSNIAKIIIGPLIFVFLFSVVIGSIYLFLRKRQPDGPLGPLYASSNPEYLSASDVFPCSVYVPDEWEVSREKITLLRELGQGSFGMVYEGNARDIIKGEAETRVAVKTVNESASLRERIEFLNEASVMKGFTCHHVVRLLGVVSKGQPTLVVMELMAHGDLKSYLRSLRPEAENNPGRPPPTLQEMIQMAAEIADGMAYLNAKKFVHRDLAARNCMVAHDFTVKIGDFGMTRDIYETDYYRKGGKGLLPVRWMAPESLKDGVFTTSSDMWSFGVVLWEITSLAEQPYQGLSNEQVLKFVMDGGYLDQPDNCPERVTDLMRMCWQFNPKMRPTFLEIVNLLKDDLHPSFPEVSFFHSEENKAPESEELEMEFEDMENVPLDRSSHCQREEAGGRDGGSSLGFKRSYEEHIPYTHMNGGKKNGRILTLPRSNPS
Procedure: (§2) 40 µL of an IM-9 cell suspension (8×10⁶ cells/mL) was then added to each well by multichannel pipette, mixed again gently and incubated on ice for 30 min to allow competitive binding on the IR on IM-9 cells. Cells were then washed twice with 275µL of ice-cold FACS wash buffer (HBSS/2mM EDTA/0.1% Na-azide + 0.5% horse serum) by centrifuging the V-bottom plate at 3000 rpm for 3 min and aspirating the supernatant. Cells were then resuspended in 40µL of FACS staining medium containing 1:100 diluted Streptavidin-PE (Life Technologies) for 20 min on ice. Cells were then washed once with 275 µL of ice-cold FACS buffer and finally fixed with 3% paraformaldehyde for 10 min at room temp. Cells were then washed once with 275 µL of ice-cold FACS buffer and resuspended in 250µl of FACS buffer for analysis.
(§3) The insulin-Fc fusion proteins were manufactured in HEK293 cells according to Example 1 and purified using a Protein A or Protein G columns according to Example 4. […] Their %homodimer content was measured by size-exclusion chromatography according to Example 10, and their insulin receptor binding affinities were measured according to Example 12. Additionally, the insulin-Fc fusion protein affinities for the canine FcRn receptor were measured according to Example 15.

[4] = target: T3, human insulin receptor (IR) on human …; assay: competition with biotinylated RHI on IM-9 cells, flow cytometry, 4 C; material purified by Protein G
Procedure: as §2, §3

[5] = target: T3, human insulin receptor (IR) on human …; assay: competition with biotinylated RHI on IM-9 cells, flow cytometry, 4 C
biotinylated canine FcRn [6] = target: T1, biotinylated canine FcRn; assay: FcRn ELISA; species of FcRn not given, taken as canine
Procedure: as §1

T1 sequence (A0A8I3PFR8 entry or part of it): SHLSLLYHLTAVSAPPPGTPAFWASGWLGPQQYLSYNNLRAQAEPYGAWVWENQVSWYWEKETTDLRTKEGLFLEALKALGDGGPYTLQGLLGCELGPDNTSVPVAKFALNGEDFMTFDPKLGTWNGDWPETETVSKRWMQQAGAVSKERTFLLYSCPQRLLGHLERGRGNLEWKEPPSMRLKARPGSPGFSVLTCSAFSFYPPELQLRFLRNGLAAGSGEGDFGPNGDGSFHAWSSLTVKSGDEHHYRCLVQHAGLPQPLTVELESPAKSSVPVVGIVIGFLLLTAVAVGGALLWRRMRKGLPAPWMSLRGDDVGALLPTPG

- EC50 (biotinylated canine FcRn [1]): 1.61 µg/mL
- OD450nm [2]: 0.253
- OD450nm minus assay background [2]: 0.196
- ratio to SEQ ID NO: 36 [2]: 0.53
- IC50 [3]: 2590 nM
B1: insulin-Fc fusion protein of SEQ ID NO: 58 (Fc fusion)
chain: FVNQHLCGSHLVEALELVCGERGFHYGGGGGGSGGGGGIVEQCCTSTCSLDQLENYCGGGGGQGGGGQGGGGQGGGGGRCTDTPPCPVPEPLGGPSVLIFPPKPKDILRITRTPEVTCVVLDLGREDPEVQISWFVDGKEVHTAKTQSREQQFNGTYRVVSVLPIEHQDWLTGKEFKCRVNHIDLPSPIERTISKARGRAHKPSVYVLPPSPKELSSSDTVSITCLIKDFYPPDIDVEWQSNGQQEPERKHRMTPPQLDEDGSYFLYSKLSVDKSRWQQGDPFTCAVMHETLQNHYTDLSLSHSPG
notes: purified by Protein A or Protein G

- IC50 [4]: 2080 nM
B2: insulin-Fc fusion protein of SEQ ID NO: 59 (Fc fusion)
chain: FVNQHLCGSHLVEALELVCGERGFHYGGGGGGSGGGGGIVEQCCTSTCSLDQLENYCGGGGGQGGGGQGGGGQGGGGGCNNCPCPGCGLLGGPSVFIFPPKPKDILVTARTPTVTCVVVDLDPENPEVQISWFVDSKQVQTANTQPREEQSNGTYRVVSVLPIGHQDWLSGKQFKCKVNNKALPSPIEEIISKTPGQAHQPNVYVLPPSRDEMSKNTVTLTCLVKDFFPPEIDVEWQSNGQQEPESKYRMTPPQLDEDGSYFLYSKLSVDKSRWQRGDTFICAVMHEALHNHYTQISLSHSPG
notes: purified by Protein G

- IC50 [5]: 2040 nM
- EC50 (biotinylated canine FcRn [6]): 1.19 µg/mL
- OD450nm [2]: 0.177
- OD450nm minus assay background [2]: 0.12
- ratio to SEQ ID NO: 36 [2]: 0.32
B3: insulin-Fc fusion protein of SEQ ID NO: 30 (Fc fusion)
chain: FVNQHLCGSHLVEALALVCGERGFHYGGGGGGSGGGGGIVEQCCTSTCSLDQLENYCGGGGGQGGGGQGGGGQGGGGGDCPKCPAPEMLGGPSVFIFPPKPKDTLLIARTPEVTCVVVDLDPEDPEVQISWFVDGKQMQTAKTQPREEQFSGTYRVVSVLPIGHQDWLKGKQFTCKVNNKALPSPIERTISKARGQAHQPSVYVLPPSREELSKNTVSLTCLIKDFFPPDIDVEWQSNGQQEPESKYRTTPPQLDEDGSYFLYSKLSVDKSRWQRGDTFICAVMHEALHNHYTQESLSHSPG
